Experimental data: patent US20250215412A1 (NOVOZYMES A S, published 2025)
Residue numbers refer to the chain shown, from its start. Names and notes keep the numbering of the source.

Legend:
Assay in all cases: cell-based or functional assay
[1] = target: T1, Chryseobacterium sp-62563 deamidase Q172V (Chryseobacterium sp-62563)
T1 sequence: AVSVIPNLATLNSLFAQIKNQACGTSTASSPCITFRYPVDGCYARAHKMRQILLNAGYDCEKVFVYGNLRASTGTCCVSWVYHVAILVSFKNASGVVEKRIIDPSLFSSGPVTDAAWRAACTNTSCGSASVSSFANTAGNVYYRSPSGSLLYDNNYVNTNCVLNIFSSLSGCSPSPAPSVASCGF

[2] = target: T2, Chryseobacterium sp-62563 deamidase Q126K (Chryseobacterium sp-62563)
T2 sequence: T1 sequence with Q17K, V63Q

[3] = target: T3, Chryseobacterium sp-62563 deamidase Q160N (Chryseobacterium sp-62563)
T3 sequence: T1 sequence with Q51N, V63Q

[4] = target: T4, Chryseobacterium sp-62563 deamidase C230N (Chryseobacterium sp-62563)
T4 sequence: T1 sequence with V63Q, C121N

[5] = target: T5, Chryseobacterium sp-62563 deamidase C230H (Chryseobacterium sp-62563)
T5 sequence: T1 sequence with V63Q, C121H

[6] = target: T6, Chryseobacterium sp-62563 deamidase Q130D (Chryseobacterium sp-62563)
T6 sequence: T1 sequence with Q21D, V63Q

[7] = target: T7, Chryseobacterium sp-62563 deamidase Q160W (Chryseobacterium sp-62563)
T7 sequence: T1 sequence with Q51W, V63Q

[8] = target: T8, Chryseobacterium sp-62563 deamidase Q130N (Chryseobacterium sp-62563)
T8 sequence: T1 sequence with Q21N, V63Q

[9] = target: T9, Chryseobacterium sp-62563 deamidase Q126E (Chryseobacterium sp-62563)
T9 sequence: T1 sequence with Q17E, V63Q

[10] = target: T10, Chryseobacterium sp-62563 deamidase Q160E (Chryseobacterium sp-62563)
T10 sequence: T1 sequence with Q51E, V63Q

[11] = target: T11, Chryseobacterium sp-62563 deamidase polypeptide (second polypeptide, deamidase domain), wildtype (Chryseobacterium sp-62563)
T11 sequence: T1 sequence with V63Q

[12] = target: T12, Chryseobacterium sp-62563 deamidase Q172E (Chryseobacterium sp-62563)
T12 sequence: T1 sequence with V63E

Relative activity of maturated deamidase (% initial rate) [1]: 66
Relative activity of maturated deamidase (% initial rate) [2]: > 100
Relative activity of maturated deamidase (% initial rate) [3]: > 100
Leakage activity [4]: 0%
Relative activity of maturated deamidase (% initial rate) [4]: 42
Leakage activity [5]: 0%
Relative activity of maturated deamidase (% initial rate) [6]: > 100
Leakage activity [7]: 2%
Relative activity of maturated deamidase (% initial rate) [7]: > 100
Leakage activity [8]: 0%
Relative activity of maturated deamidase (% initial rate) [8]: 79
Relative activity of maturated deamidase (% initial rate) [9]: > 100
Relative activity of maturated deamidase (% initial rate) [10]: > 100
Leakage activity [11]: 4%
NanoDSF thermal unfolding temperature [11]: 76.4 ° C.
Relative activity of maturated deamidase (% initial rate) [11]: 52
Relative activity of maturated deamidase (% initial rate) [12]: 64
B1: Chryseobacterium sp-62563 propeptide F99A (protein)
chain: NQDPNLVAKESNETAMKDFGKTVPVGIEKEDGKFKISFMVTAQPYEIKDSKENAAYISMIKTAVENETPIHVFLKANTNEIAKVDKATDDDIRYFKSVATKEVKEENRK
